Source: PMC8012516, “Antimicrobial peptide DP7 with potential activity against SARS coronavirus infections” (Signal Transduction and Targeted Therapy, 2021)

How the values were obtained:
[1] = molecular target: T1, S-receptor-binding domain (RBD)-Fc of SARS-CoV-2 (SARS-CoV-2, UniProt P0DTC2); experiment: SPR; conditions: both partners purified
T1 construct: also called S-RBD-Fc of SARS-CoV-2; S-RBD-Fc

[2] = molecular target: angiotensin-converting enzyme 2 (UniProt Q9BYF1 18-805); experiment: SPR; Biacore; who was immobilised and the conditions are not given; conditions: both partners purified
Chain of angiotensin-converting enzyme 2 (Q9BYF1 18-805): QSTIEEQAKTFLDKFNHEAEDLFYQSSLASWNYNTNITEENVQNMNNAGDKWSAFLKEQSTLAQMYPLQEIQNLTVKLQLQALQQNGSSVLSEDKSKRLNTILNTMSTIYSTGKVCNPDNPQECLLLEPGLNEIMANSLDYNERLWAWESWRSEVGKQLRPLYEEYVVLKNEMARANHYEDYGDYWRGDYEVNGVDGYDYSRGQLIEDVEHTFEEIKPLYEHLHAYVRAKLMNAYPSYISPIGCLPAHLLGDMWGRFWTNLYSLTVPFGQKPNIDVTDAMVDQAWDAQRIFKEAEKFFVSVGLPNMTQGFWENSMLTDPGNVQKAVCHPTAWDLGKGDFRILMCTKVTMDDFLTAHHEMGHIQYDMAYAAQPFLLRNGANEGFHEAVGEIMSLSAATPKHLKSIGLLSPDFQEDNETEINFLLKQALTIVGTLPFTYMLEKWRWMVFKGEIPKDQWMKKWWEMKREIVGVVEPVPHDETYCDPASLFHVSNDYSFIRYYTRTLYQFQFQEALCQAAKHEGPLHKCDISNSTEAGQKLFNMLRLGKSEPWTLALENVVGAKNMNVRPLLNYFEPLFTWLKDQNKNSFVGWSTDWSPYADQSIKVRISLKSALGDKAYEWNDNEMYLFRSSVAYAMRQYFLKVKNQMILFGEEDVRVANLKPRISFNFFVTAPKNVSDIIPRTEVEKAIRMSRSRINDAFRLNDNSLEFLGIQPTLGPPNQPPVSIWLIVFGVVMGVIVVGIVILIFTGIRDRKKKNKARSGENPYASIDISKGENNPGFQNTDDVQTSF

Binder: VQWRIRVAVIRK (also called antimicrobial peptide DP7) [antibacterial peptide DP7]
- Kd [1]: 51.9 nM
- Kd [2]: 227 nM
